Data on 2 substances can be found in paper PMC3229090 (Biochemistry, 2011).

Ends that are not written are not given here.

For data set [1] the following is noted: measured previously; ref [20]; cited from earlier work.
The test system of the next data set is HeLa cells. The data set can be described thus: HeLa proliferation assay. To be noted: pH 6.0 and 7.4, treatment 3 hrs, data not shown. The data set is classed as cell-based, Human.
A short description of data set [2]: Reverse phase C18 HPLC elution as measure of hydrophobicity. The data set is classed as physicochemical. To be noted: reverse phase C18, 30 min gradient from 99:1 A/B to 70:30 A/B, water/acetonitrile + 0.05% TFA, flow rate 1 ml/min.

On to phalloidin-rhodamine, for which the “Log P of phalloidin-rhodamine” value in data set [1] was -0.05.
Take “phallacidin (AWLVDCP; also: cyclic peptide, R1 = H, R2 = COOH)”: the “Antiproliferative effect at either pH” value in the data set with HeLa cells is given as “do not demonstrate an antiproliferative effect”. In data set [2], the “HPLC elution time of phallotoxins” value is reported as 30.3 min.
